The values below come from patent US20140348865A1, “[…] ON AN HIV-1 V1V2 SITE-OF-VULNERABILITY” (The United States of America, as represented by the …, priority 2011, published 2014).

Positions count from the first letter of the chain named.

B1: 1vh8_c: minimal PG9 epitope-scaffold, SEQ ID NO: 65, native scaffold PDB 1VH8 (protein)
chain: SLIRIGHGFDVHAFGKHASFNITTDVKDRKQKVNATFGFIAHSDGDVALHALTDAILGAAALGDIGKLFPKNADSRGLLREAFRQVQEKGYKIGNVDITIIAQAPKMRPHIDAMRAKIAEDLQCDIEQVNVKATTTEKLGFTGRQEGIACEAVALLIRQ
modifications: Human immunodeficiency virus
B2: 1vh8 b: minimal PG9 epitope-scaffold, SEQ ID NO: 64, native scaffold PDB 1VH8 (protein)
chain: B1 chain with G15V, G38Y
modifications: Human immunodeficiency virus
B3: 1vh8_a: minimal PG9 epitope-scaffold, SEQ ID NO: 63, native scaffold PDB 1VH8 (protein)
chain: B1 chain with G15V, A18C, G38Y
modifications: Human immunodeficiency virus
B4: 2f7s_B: minimal PG9 epitope-scaffold, SEQ ID NO: 52, native scaffold PDB 2F7S (protein)
chain: DYDYLIKLLALGDSGVGKTTFLYRYTDNKFNPKFITTVGIDVKHASFNITTDVKDRKQKVNATFYDTAGQERFRSLTTAFFRDAMGFLLMFDLTSQQSFLNVRNWMSQLQANAYCENPDIVLIGNKADLPDQREVNERQARELADKYGIPYFETSAATGQNVEKAVETLLDLIMKRMEQCVE
modifications: Human immunodeficiency virus
B5: 2f7s_C: minimal PG9 epitope-scaffold, SEQ ID NO: 53, native scaffold PDB 2F7S (protein)
chain: B4 chain with D41C, D66C
modifications: Human immunodeficiency virus
B6: 2zjr_a: minimal PG9 epitope-scaffold, SEQ ID NO: 17, native scaffold PDB 2ZJR (protein)
chain: SHYDILQAPVISEKAYSAMERGVYSFWVSPGATKTEIKDAIQQAFGVRVIGISVKHCSFNITTDVKDRKQKVNATFAIVRLAEGQSIEALAGQ
modifications: Human immunodeficiency virus
B7: 2zjr_b: minimal PG9 epitope-scaffold, SEQ ID NO: 18, native scaffold PDB 2ZJR (protein)
chain: B6 chain with V54T, C57A
modifications: Human immunodeficiency virus
B8: 1YN3_A: minimal PG9 epitope-scaffold, SEQ ID NO: 28, native scaffold PDB 1YN3 (protein)
chain: GSHVSFNITTDVKDRKQKVNATFYKNQNISYKDLEGKVKSVLESNRGITDVDLRLSKQAKYTVNFKNGTKKVIDLKSGIYTANLINSSDIKSININID
modifications: Human immunodeficiency virus
B9: 1t0a_a: minimal PG9 epitope-scaffold, SEQ ID NO: 77, native scaffold PDB 1T0A (protein)
chain: KIRIGHGFDVHKFGKHASFNITTDVKDRKQKVNATFGLVAHSDGDVVLHAISDAILGAMALGDIGKHFPDTDAAYKGADSRVLLRHCYALAKAKGFELGNLDVTIIAQAPKMAPHIEDMRQVLAADLNADVADINVKATTTEKLGFTGRKEGIAVEAVVLLSRQG
modifications: Human immunodeficiency virus
B10: 3pyr_a: minimal PG9 epitope-scaffold, SEQ ID NO: 76, native scaffold PDB 3PYR (protein)
chain: MKTAYDVILAPVLSEKAYAGFAEGKYTFWVHPKATKTEIKNAVETAFKVKVVKVNTKHASFNITTDVKDRKQKVNATFAIVQVAPGQKIEALEGLIG
modifications: Human immunodeficiency virus
B11: 1x3e_C: minimal PG9 epitope-scaffold, SEQ ID NO: 68 in Table 2 (SEQ ID NO: 67 in b296), native scaffold PDB 1X3E (protein)
chain: GDTTITVVGNLTADPELRFTPSGAAVANFTVASTGSALFLRCNIWREAAENVAESLTRGSRVIVTGRLCVKHASFNITTDVKDRKQKVNATFYCVEVDEIGPSLR
modifications: Human immunodeficiency virus
B12: 1x3e_a: minimal PG9 epitope-scaffold, SEQ ID NO: 66, native scaffold PDB 1X3E (protein)
chain: B11 chain with C69K, A73C, C94E
modifications: Human immunodeficiency virus
B13: 2vxs_a: minimal PG9 epitope-scaffold, SEQ ID NO: 37, native scaffold PDB 2VXS (protein)
chain: TNPKRSSDYYNRSTSPWNLHRNEDPERYPSVIWEAKCRHLGCINADGNVDYHMNSISQNITTDVKDRKQKVNATCTCVTPIVH
modifications: Human immunodeficiency virus
B14: 2ZJR: 2ZJR epitope-scaffold of FIG. 58; legend leaves open whether 2ZJR_A or 2ZJR_B (protein)
chain: B6 chain
B15: PG9e-ferritin (ZM109): ferritin particle displaying the minimal PG9 epitope (gp120 154-177) of HIV-1 strain ZM109 (protein)
chain: MLSKDIIKLLNEQVNKEMQSSNLYMSMSSWCYTHSLDGAGLFLFDHAAEEYEHAKKLIIFLNENNVPVQLTSISAPEHKFEGLTQIFQKAYEHEQHISESINNIVDHAIGVKHSSFNITTDVKDRKQKVNATFYGKDHATFNFLQWYVAEQHEEEVLFKDILDKIELIGNENHGLYLADQYVKGIAKSRKS
B16: PG9e-encapsulin (ZM109): encapsulin particle displaying the minimal PG9 epitope (gp120 154-177) of HIV-1 strain ZM109 (protein)
chain: MEFLKRSFAPLTEKQWQEIDNRAREIFKTQLYGRKFVDVEGPYGWEYAAHPLGEVEVVKHSSFNITTDVKDRKQKVNATFGLRKSLPLIELRATFTLDLWELDNLERGKPNVDLSSLEETVRKVAEFEDEVIFRGCEKSGVKGLLSFEERKIECGSTPKDLLEAIVRALSIFSKDGIEGPYTLVINTDRWINFLKEEAGHYPLEKRVEECLRGGKIITTPRIEDALVVSERGGDFKLILGQDLSIGYEDREKDAVRLFITETFTFQVVNPEALILLK

The first experiment has as its system monoclonal antibody PG9. The experiment in a line: ELISA of minimal epitope scaffolds with PG9. It counts as binding, human. The note with it: GnTI- cell expression. The method, then: (§1) The supernatants of all wells expressing minimal epitope scaffolds were tested for binding to PG9, CH01, CH03, PGT145 and PGT142 antibodies through ELISA assays in which the supernatant was diluted 5-fold in PBS and incubated on nickel coated plates. […] Some, such as 2ZJR_A, were run over a protein A column coated in PG9 which was subsequently cleaved from the column resulting in an eluted complex consisting of the scaffolds and the PG9 Fab.
In general terms: An ELISA detects its analyte on a solid surface through an enzyme-linked reagent.
Consider B1, for which the “binding to monoclonal antibody PG9” value is “bind”. Still for that read-out and setting: the value for B2 was “bind”. Turning to B3, the “binding to monoclonal antibody PG9” value was “bind”.

For the molecule B4, the “binding to monoclonal antibody PG9” value is “bind”. The same measure, in the same setting: the entry for B5 is “bind”; for B6 it is “bind”; for B7 it is “bind”. On the same count and under the same terms, the value for B8 was “bind”; that for B9 was “bind”. With B10, the “binding to monoclonal antibody PG9” value was “bind”. As to B11, the “binding to monoclonal antibody PG9” value was “bind”. With B12, the “binding to monoclonal antibody PG9” value was “bind”.

On to B13, for which the “binding to monoclonal antibody PG9” value is given as “bind”.

In the next experiment the test system is PG9 Fab. The experiment is described as follows: Gel filtration of epitope scaffold complex with PG9 Fab. It is filed as binding, human.
Settings: not given
On the procedure: as §1
For orientation: Size exclusion chromatography separates by hydrodynamic size, large species first.
On to B6, for which the “complex with PG9 Fab through gel filtration” value is “intact complex”. On to B14, for which the “complex with PG9 Fab through gel filtration” value is reported as “forms a stable complex”.

The test system of the next experiment is PG9. The experiment is described as follows: Immunoprecipitation of protein nanoparticles with PG9. It is filed as binding, human. The conditions noted are these: Protein A agarose, SDS-PAGE, Coomassie stain. On the procedure:
(§2) The minimal PG9 epitope (residues 154-177) or variations thereof, were inserted or fused to ferritin, encapsulin or SOR genes using the schemes shown in FIG. 59. The expression plasmids were transfected into HEK293 cells grown in the presence of swainsonine, or transfected into HEK293 GnTI^−/− cells. Particles were purified from the media using lectin affinity chromatography (snow drop lectin from Galanthus nivalis) followed by size-exclusion chromatography. Binding experiments were performed by incubating purified particles or particle-containing expression supernatant with the listed antibodies (PG9, PG16, VRC01) and Protein A agarose resin. After this incubation, the resin was pelleted and washed several times, and then incubated with SDS-containing buffer at 100 C. The solubilized and denatured proteins were separated by SDS-PAGE and visualized with Coomassie stain.
For the molecule B15, the “immunoprecipitation by PG9” value was “immunoprecipitate”.

Take B16: the “immunoprecipitation by PG9” value is listed as “immunoprecipitate”.

The subject of the next experiment is PG16. The experiment in a line: Immunoprecipitation of protein nanoparticles with PG16. It counts as binding, human. The conditions noted are these: Protein A agarose, SDS-PAGE, Coomassie stain. On the procedure:
as §2
Take B15: the “immunoprecipitation by PG16” value was “interacts”.
